Reference: patent publication US7851436 (WASHINGTON UNIVERSITY IN ST LOUIS, dated 2010)

Legend:
β1 integrin = target: T1, β1 integrin (human, UniProt P05556 21-798); assay: GST pull-down from surface-biotinylated Ch-1 lysate, Western blot (FIG. 3K)
T1 construct: whole, on cells; Probed by Western blot in the material pulled out by PIIBNP
Protocol: (§1) Cell Surface labeling and GST Pull-down Assay. Ch-1 cells were incubated with EZ-link Sulfo-NHS-Biotin reagent for 30 mins. according to the product instruction (Sigma). After 3 washes with 0.1 M glycine in PBS, the cells were lysed with a lysis buffer described above. […] The membrane was washed and incubated with antibodies and then incubated with a secondary antibody coupled to horseradish peroxidase. The antibody complex was visualized by enhanced chemiluminescence.

α4 integrin = target: T2, α4 integrin (human, UniProt P13612 34-1032); assay: GST pull-down from surface-biotinylated Ch-1 lysate, Western blot (data not shown)
T2 construct: whole, on cells; The antibody lists in the methods name α2, α3 and α5 but not α4
T2 sequence (looked up): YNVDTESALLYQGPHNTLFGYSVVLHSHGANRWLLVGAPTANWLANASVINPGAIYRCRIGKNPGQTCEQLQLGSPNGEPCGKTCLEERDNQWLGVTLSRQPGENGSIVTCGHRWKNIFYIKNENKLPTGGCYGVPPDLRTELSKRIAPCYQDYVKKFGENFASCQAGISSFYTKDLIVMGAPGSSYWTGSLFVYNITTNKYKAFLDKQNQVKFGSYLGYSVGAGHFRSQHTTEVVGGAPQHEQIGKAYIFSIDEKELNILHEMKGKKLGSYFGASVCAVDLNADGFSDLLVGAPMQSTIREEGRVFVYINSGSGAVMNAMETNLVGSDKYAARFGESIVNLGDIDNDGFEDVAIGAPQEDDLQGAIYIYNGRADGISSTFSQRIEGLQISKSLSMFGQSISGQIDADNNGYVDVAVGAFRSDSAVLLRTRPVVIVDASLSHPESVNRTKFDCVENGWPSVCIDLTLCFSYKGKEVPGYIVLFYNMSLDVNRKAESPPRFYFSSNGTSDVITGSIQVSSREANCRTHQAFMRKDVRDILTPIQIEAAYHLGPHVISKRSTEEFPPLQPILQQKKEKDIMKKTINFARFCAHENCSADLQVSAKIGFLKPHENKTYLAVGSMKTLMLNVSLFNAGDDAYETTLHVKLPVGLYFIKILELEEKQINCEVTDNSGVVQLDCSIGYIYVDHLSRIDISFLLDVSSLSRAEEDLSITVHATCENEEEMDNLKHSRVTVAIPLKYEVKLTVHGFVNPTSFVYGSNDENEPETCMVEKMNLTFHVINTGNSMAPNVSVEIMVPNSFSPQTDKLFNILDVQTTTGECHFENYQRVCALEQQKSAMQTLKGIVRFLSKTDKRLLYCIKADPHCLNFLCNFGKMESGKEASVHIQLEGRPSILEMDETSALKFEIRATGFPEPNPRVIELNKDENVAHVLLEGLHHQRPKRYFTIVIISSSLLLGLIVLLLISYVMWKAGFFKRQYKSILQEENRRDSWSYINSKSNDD

α5 integrin = target: T3, α5 integrin (human, UniProt P08648 42-1049); assay: as above
T3 construct: whole, on cells
Protocol: as §1

Measured: binding result

T1 sequence (P05556 21-798): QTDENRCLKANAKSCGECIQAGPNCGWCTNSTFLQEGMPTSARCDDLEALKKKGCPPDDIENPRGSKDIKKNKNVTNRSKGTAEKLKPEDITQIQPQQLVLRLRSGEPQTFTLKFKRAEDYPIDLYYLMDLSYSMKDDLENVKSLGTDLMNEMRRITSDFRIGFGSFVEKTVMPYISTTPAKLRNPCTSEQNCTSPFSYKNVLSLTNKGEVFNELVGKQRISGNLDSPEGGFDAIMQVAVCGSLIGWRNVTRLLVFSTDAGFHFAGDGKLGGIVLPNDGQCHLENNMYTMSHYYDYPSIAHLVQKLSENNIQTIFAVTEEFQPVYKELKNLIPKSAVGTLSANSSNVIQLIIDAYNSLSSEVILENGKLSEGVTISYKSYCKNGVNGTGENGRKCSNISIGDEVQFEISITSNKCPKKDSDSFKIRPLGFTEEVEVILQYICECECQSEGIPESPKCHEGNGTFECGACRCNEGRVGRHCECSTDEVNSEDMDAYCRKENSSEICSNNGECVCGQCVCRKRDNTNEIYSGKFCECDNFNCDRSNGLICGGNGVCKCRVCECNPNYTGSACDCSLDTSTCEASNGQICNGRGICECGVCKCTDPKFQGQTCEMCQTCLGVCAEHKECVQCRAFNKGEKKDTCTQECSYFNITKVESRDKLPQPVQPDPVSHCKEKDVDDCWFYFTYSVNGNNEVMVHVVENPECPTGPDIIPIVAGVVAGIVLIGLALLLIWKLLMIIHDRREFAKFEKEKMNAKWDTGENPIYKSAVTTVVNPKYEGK
T3 sequence (P08648 42-1049): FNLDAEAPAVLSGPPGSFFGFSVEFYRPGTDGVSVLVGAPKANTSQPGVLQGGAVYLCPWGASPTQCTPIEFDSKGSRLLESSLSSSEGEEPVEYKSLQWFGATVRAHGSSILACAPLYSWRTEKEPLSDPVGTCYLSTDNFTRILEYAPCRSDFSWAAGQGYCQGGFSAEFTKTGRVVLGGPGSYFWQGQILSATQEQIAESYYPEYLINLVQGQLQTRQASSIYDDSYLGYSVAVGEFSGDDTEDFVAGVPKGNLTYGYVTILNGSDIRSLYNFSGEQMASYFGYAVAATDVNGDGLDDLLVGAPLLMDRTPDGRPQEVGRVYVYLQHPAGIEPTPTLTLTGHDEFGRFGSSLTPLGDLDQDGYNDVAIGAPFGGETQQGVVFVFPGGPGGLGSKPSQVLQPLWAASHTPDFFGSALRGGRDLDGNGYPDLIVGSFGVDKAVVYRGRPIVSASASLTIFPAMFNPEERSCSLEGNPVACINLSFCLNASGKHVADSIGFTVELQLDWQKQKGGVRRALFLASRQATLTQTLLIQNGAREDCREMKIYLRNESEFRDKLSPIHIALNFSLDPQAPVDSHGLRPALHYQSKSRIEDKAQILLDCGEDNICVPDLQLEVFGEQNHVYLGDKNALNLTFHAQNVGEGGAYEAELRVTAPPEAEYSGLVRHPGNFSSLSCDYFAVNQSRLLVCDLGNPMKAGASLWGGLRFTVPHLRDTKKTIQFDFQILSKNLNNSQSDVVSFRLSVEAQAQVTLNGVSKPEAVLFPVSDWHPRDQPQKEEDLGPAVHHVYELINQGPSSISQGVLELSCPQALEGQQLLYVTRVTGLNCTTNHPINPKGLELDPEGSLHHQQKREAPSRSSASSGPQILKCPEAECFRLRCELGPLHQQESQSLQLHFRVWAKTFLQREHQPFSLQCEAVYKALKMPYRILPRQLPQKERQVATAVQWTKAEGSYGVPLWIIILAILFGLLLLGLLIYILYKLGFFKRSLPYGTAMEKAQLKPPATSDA

B1: GST-PIIBNP (GST fusion of human Type IIB collagen amino propeptide, exons 3-8) (ligand)
chain: not shown
notes: domain: PIIBNP (exons 3-8); Expressed in E. coli BL21 (DE3) as a GST fusion; also called Type IIB propeptide; PPIIBNP; not shown: glutathione S-transferase (GST) tag encoded by the pGEX-4T-2 vector, thrombin-cleavable
no binding: β1 integrin | α4 integrin | α5 integrin
